Experimental data: IntAct's records for PubMed 22158122

B1: TGF-beta-activated kinase 1 and MAP3K7-binding protein 3 (Homo sapiens), Q8N5C8-1 (parent)
chain: MAQSSPQLDIQVLHDLRQRFPEIPEGVVSQCMLQNNNNLEACCRALSQESSKYLYMEYHSPDDNRMNRNRLLHINLGIHSPSSYHPGDGAQLNGGRTLVHSSSDGHIDPQHAAGKQLICLVQEPHSAPAVVAATPNYNPFFMNEQNRSAATPPSQPPQQPSSMQTGMNPSAMQGPSPPPPPPSYMHIPRYSTNPITVTVSQNLPSGQTVPRALQILPQIPSNLYGSPGSIYIRQTSQSSSGRQTPQSTPWQSSPQGPVPHYSQRPLPVYPHQQNYQPSQYSPKQQQIPQSAYHSPPPSQCPSPFSSPQHQVQPSQLGHIFMPPSPSTTPPHPYQQGPPSYQKQGSHSVAYLPYTASSLSKGSMKKIEITVEPSQRPGTAINRSPSPISNQPSPRNQHSLYTATTPPSSSPSRGISSQPKPPFSVNPVYITYTQPTGPSCTPSPSPRVIPNPTTVFKITVGRATTENLLNLVDQEERSAAPEPIQPISVIPGSGGEKGSHKYQRSSSSGSDDYAYTQALLLHQRARMERLAKQLKLEKEELERLKSEVNGMEHDLMQRRLRRVSCTTAIPTPEEMTRLRSMNRQLQINVDCTLKEVDLLQSRGNFDPKAMNNFYDNIEPGPVVPPKPSKKDSSDPCTIERKARRISVTSKVQADIHDTQAAAADEHRTGSTQSPRTQPRDEDYEGAPWNCDSCTFLNHPALNRCEQCEMPRYT
partner: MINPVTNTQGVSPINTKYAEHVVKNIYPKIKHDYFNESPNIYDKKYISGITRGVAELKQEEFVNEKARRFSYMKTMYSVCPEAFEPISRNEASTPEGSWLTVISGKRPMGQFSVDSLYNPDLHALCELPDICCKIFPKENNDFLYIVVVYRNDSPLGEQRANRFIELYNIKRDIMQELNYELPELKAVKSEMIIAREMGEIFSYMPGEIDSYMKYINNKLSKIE
B2: TGF-beta-activated kinase 1 and MAP3K7-binding protein 2 (Homo sapiens), Q9NYJ8 (parent)
chain: MAQGSHQIDFQVLHDLRQKFPEVPEVVVSRCMLQNNNNLDACCAVLSQESTRYLYGEGDLNFSDDSGISGLRNHMTSLNLDLQSQNIYHHGREGSRMNGSRTLTHSISDGQLQGGQSNSELFQQEPQTAPAQVPQGFNVFGMSSSSGASNSAPHLGFHLGSKGTSSLSQQTPRFNPIMVTLAPNIQTGRNTPTSLHIHGVPPPVLNSPQGNSIYIRPYITTPGGTTRQTQQHSGWVSQFNPMNPQQVYQPSQPGPWTTCPASNPLSHTSSQQPNQQGHQTSHVYMPISSPTTSQPPTIHSSGSSQSSAHSQYNIQNISTGPRKNQIEIKLEPPQRNNSSKLRSSGPRTSSTSSSVNSQTLNRNQPTVYIAASPPNTDELMSRSQPKVYISANAATGDEQVMRNQPTLFISTNSGASAASRNMSGQVSMGPAFIHHHPPKSRAIGNNSATSPRVVVTQPNTKYTFKITVSPNKPPAVSPGVVSPTFELTNLLNHPDHYVETENIQHLTDPTLAHVDRISETRKLSMGSDDAAYTQALLVHQKARMERLQRELEIQKKKLDKLKSEVNEMENNLTRRRLKRSNSISQIPSLEEMQQLRSCNRQLQIDIDCLTKEIDLFQARGPHFNPSAIHNFYDNIGFVGPVPPKPKDQRSIIKTPKTQDTEDDEGAQWNCTACTFLNHPALIRCEQCEMPRHF
partner: B1 partner

Variants of: B1
Conditions: with nlee_eco27 nleE

Variant	effect of a mutation on the interaction
C689S	disrupting interaction
C703S	disrupting interaction
C706S	disrupting interaction

Variants of: B2
Conditions: with nlee_eco27 nleE

Variant	effect of a mutation on the interaction
C684S	disrupting interaction
C687S	disrupting interaction
C670S	disrupting interaction
